Laboratory results as given in patent US20040054131A1.
Where no end group is shown, it is not given here.

Molecular target: FGFR1c extracellular domain-IgG fusion protein (human) (UniProt P11362)
Experiment: BIAcore real-time kinetic analysis, immobilized FGFR1c ECD, no heparin; approximate apparent affinity

FGFR1c extracellular domain-IgG fusion protein (human), sequence (P11362 22-377): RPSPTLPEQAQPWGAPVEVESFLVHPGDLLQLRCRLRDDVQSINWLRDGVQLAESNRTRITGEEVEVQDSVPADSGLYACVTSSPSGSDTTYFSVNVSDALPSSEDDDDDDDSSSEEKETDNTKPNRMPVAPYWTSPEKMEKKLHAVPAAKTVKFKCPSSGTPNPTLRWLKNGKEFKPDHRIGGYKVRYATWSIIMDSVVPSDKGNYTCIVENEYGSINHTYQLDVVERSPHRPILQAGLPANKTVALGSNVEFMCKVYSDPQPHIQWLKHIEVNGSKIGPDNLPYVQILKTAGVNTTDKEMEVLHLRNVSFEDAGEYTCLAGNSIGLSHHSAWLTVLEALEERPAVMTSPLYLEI

- Kd: 90 nM
B1: C19-Ig fusion protein (Fc fusion, part only; not given: linkers and human IgG1 Fc, not shown: a dimerising Fc or GST)
chain, part: AESGDDYCVLVFTDSAWTKICDWSHFRN
modifications: cysteine pairing not given here; also: homodimer, fused to Fc of human IgG1
